Where two headings read alike, the source gives them in different places. One block for each binder: values may come before it.
Columns and labels:
6xHis-tagged huPD-L1 [1] = molecular target: T1, 6xHis-tagged huPD-L1 (human, UniProt Q9NZQ7 19-238); assay: ELISA, plate-coated human PD-L1 (1 µg/mL), OD 450 nm, B7 ligand specificity panel
T1 construct: also called human PD-L1 (RD Systems 9049-B7); extracellular domain of human PD-L1 fused to a His tag; not shown: 6xHis tag
Procedure: (§1) Hybridoma supernatants were tested for binding to huPD-L1, cyPD-L1, and muPD-L1 by ELISA. Briefly, 30 μL 6xHis-tagged huPD-L1, cyPD-L1, or muPD-L1 (1 μg/mL in PBS) were immobilized in wells of a 96-well assay plate overnight at 4° C. After washing and blocking steps, 30 μL of antibody supernatant were added to the plate and incubated at room temperature for 1 hr. Bound human antibody was detected using horseradish peroxidase (HRP)-conjugated goat anti-human Fc (Invitrogen Cat. No. 109-035-097; diluted 1:5000) or goat anti-mouse Fc HRP (Invitrogen Cat. No. 115-035-071) as a control. Bound antibody was detected with 1-Step Ultra™ TMB-ELISA Substrate (ThermoFisher Scientific Cat. No. 34029). When the reaction was complete the reaction was stopped, and the plate was read at 450 nm.
(§2) Briefly, wells of a 96-well plate (Corning 3690) were incubated with 30 μL human PD-L1 (RD Systems 9049-B7), human PD-L2 (RD Systems 9075-PL), human B7-1/CD80 (RD Systems 9050-B1), human B7-2/CD86 (RD Systems 9090-B2), human B7-H2 (RD Systems 8206-B7), or human B7-H3 (RD Systems 1949-B3), at a concentration of 1 μg/mL in PBS, overnight at 4C, to coat the wells with ligand. After washing and blocking steps, 30 μL of antibody at 8 concentrations ranging from 1 ng/mL to 3 mg/mL were added to the plate and incubated at room temperature for 1 hr. Bound human antibody was detected as described above.

[2] = molecular target: T2, human PD-L1 expressed on cells (human, UniProt Q9NZQ7 19-290); assay: cell-based or functional assay
[3] = molecular target: T3, PD-L1-His (Acro Cat PDL-H5229) (human, UniProt Q9NZQ7 19-238); assay: SPR (Biacore 4000), antibody captured on anti-human CM4 chip, PD-L1-His analyte, 25° C.
T3 construct: also called human PD-L1 (SPR analyte); not shown: His tag
Procedure: (§3) The binding affinities of the generated antibodies to human PD-L1 were determined by surface plasmon resonance. […] PD-L1-His (Acro Cat PDL-H5229) was tested for binding in a 3-fold titration series up to 100 nM. Data were collected in HBS-P (pH 7.4) at 37° C. and 25° C.

6xHis-tagged huPD-L1 [4] = molecular target: T1, 6xHis-tagged huPD-L1; assay: ELISA, plate-coated 6xHis huPD-L1, OD 450 nm
Procedure: as §1
(§4) Anti-PD-L1 antibodies, described in Example 1A and manufactured substantially as described in Example 1B, were tested for to huPD-L1 and cyPD-L1 by ELISA substantially as described in Example 1A, using 12 dilutions of antibody ranging from 1 ng/ml to 3 mg/mL.

6xHis-tagged cyPD-L1 [5] = molecular target: T4, 6xHis-tagged cyPD-L1 (cynomolgus monkey, UniProt Q9NZQ7 19-238 (human entry)); assay: ELISA, plate-coated 6xHis cyPD-L1, OD 450 nm
T4 construct: The assay text says only '6xHis-tagged cyPD-L1'; also called cynomolgus PD-L1; not shown: 6xHis tag
Procedure: as §1, §4

[6] = molecular target: T3, PD-L1-His (Acro Cat PDL-H5229); assay: SPR (Biacore 4000), antibody captured on anti-human CM4 chip, PD-L1-His analyte, 37° C.
Procedure: as §3

[7] = molecular target: T2, human PD-L1 expressed on cells; assay: flow cytometry on unstimulated A431 cells (MFI against antibody concentration)
Procedure: (§5) Approximately 2.5×10⁵ A431 squamous cell carcinoma cells were plated in a final volume of 50 μL FACS buffer (phosphate buffered saline, 1% fetal bovine serum, 5 mM EDTA) in 96-well plates. 50 μL 2× Zombie Violet (BioLegend) were added to each well, and the plates were incubated 20-30 minutes at room temperature, protected from light. After incubation, 150 μL FACS buffer were added to each well. The plates were centrifuged at 500×g for 5 minutes. The supernatant was removed, and the cell pellet were resuspended in 200 μL FACS buffer. The wash procedure was repeated for a total of 2-3 washes. […] After the cells were incubated with the primary anti-PD-L1 antibody 1 hour on ice, protected from light, 150 μL FACS buffer were added to each well. The plates were then centrifuged, the supernatant was removed, and the cells were resuspended in 250 μL FACS buffer three times. After the third wash, the cells were resuspended in 100 μL goat anti-human IgG-Alexa Fluor 488 secondary antibody, and incubated for 30 minutes on ice, protected from light. After 3 washes as previously described, the cells were resuspended in 200 μL FACS buffer. The cells were then analyzed using a CytoFLEX flow cytometer.

[8] = molecular target: T5, human PD-L2 (RD Systems 9075-PL) (human, UniProt Q9BQ51 20-219); assay: ELISA, plate-coated human PD-L2 (1 µg/mL), OD 450 nm, B7 ligand specificity panel
T5 sequence (looked up): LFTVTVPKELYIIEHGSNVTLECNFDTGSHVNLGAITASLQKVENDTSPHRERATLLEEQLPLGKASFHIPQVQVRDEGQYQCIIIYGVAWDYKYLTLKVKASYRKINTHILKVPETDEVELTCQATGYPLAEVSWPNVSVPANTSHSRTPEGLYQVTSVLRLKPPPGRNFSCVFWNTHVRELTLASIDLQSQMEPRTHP
Procedure: as §1, §2

[9] = molecular target: T2, human PD-L1 expressed on cells; assay: flow cytometry, PD-L1-expressing CHO cells, MFI (FITC)
Procedure: Wild-type (wt) Chinese hamster ovary (CHO) cells (ATCC) and CHO cells engineered to express huPD-L1 (BPS Bioscience) were seeded at 200,000 cells in 50 μL FACS buffer (PBS containing 1% FBS and 5 mM EDTA) per well of a 96-well plate. Cell viability was assessed by adding 50 μL 2×Zombie Violet (BioLegend). Dead cell controls were also prepared and 2×Zombie violet was added. After incubating 20-30 minutes at room temperature, protected from light, 150 μL FACS buffer were added to each well. The plates were centrifuged, and the supernatant was aspirated. […] The plates were incubated 30 minutes on ice, protected from light. 150 μL FACS buffer were then added to each well and the plate was centrifuged. The supernatant was removed and the cells were washed three times in 200 μL FACS buffer. […] The cells were incubated 30 minutes on ice, protected from light. 150 μL FACS buffer were then added to each well and the plate was centrifuged. Supernatant was removed and the cells were washed twice with 200 μL FACS buffer. The cells were then resuspended in FACS buffer and analyzed by CytoFLEX using the appropriate channels. After gating for whole, single, live cells, the MFI in the APC channel (or FITC channel for human control samples) was normalized to the signal from hybridoma media alone (or isotype control for human control). MFI fold over media alone was determined for each clone supernatant tested.

6xHis-tagged cyPD-L1 [10] = molecular target: T4, 6xHis-tagged cyPD-L1; assay: ELISA, plate-coated 6xHis cyPD-L1, OD 450 nm; remark: listed apart in the source
Procedure: as §1

[11] = molecular target: T2, human PD-L1 expressed on cells; assay: flow cytometry on unstimulated A431 cells, 10 conjugate concentrations
Procedure: as §5

[12] = molecular target: T2, human PD-L1 expressed on cells; assay: cell-based or functional assay; remark: listed apart in the source
[13] = molecular target: T2, human PD-L1 expressed on cells; assay: flow cytometry, IFN-γ-stimulated BxPC3 cells, MFI (FITC)
[14] = molecular target: T2, human PD-L1 expressed on cells; assay: flow cytometry, IFN-γ-stimulated A431 cells, MFI (FITC)
[15] = molecular target: T2, human PD-L1 expressed on cells; assay: flow cytometry, CHO-hPD-L1 cells, MFI (FITC)
[16] = molecular target: T3, PD-L1-His (Acro Cat PDL-H5229); assay: SPR (Biacore 4000) as in Example 3, conjugate captured, PD-L1-His analyte, 25° C.
Procedure: as §3
(§6) The binding affinities of the generated anti-PD-L1 conjugates were determined by surface plasmon resonance, as described in Example 3.

6xHis-tagged huPD-L1 [17] = molecular target: T1, 6xHis-tagged huPD-L1; assay: ELISA, plate-coated 6xHis huPD-L1, OD 450 nm; remark: listed apart in the source
Procedure: as §1

[18] = molecular target: T3, PD-L1-His (Acro Cat PDL-H5229); assay: SPR (Biacore 4000) as in Example 3, conjugate captured, PD-L1-His analyte, 37° C.
Procedure: as §3, §6

[19] = molecular target: T2, human PD-L1 expressed on cells; assay: cell-based or functional assay; remark: listed apart in the source
[20] = molecular target: T2, human PD-L1 expressed on cells; assay: flow cytometry on unstimulated A431 cells, ratio of EC50 values
Procedure: as §5

T3 sequence (Q9NZQ7 19-238 limits assumed): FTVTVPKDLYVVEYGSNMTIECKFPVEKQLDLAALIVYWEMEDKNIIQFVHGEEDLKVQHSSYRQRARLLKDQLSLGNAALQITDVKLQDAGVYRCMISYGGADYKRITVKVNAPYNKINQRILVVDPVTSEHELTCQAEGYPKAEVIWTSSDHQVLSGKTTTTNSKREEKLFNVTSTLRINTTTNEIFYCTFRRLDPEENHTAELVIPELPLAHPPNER
T1 sequence (Q9NZQ7 19-238): as the sequence (Q9NZQ7 19-238 limits assumed) above
T2 sequence (Q9NZQ7 19-290): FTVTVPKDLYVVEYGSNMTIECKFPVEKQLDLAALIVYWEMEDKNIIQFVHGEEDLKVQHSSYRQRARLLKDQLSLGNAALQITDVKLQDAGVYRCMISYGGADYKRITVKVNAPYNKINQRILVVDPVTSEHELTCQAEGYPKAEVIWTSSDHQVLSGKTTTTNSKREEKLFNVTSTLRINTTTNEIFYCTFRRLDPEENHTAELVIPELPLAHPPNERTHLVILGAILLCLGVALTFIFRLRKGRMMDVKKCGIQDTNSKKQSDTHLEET
T4 sequence (Q9NZQ7 other isoform, or with tags, fused parts or gaps): as the sequence (Q9NZQ7 19-238 limits assumed) above, with A33T, A34S, S62N, R68Q, Q82R, F173L, T185A, T192I, H215L counted along it

EC50 (6xHis-tagged huPD-L1 [1]): 0.478 µg/mL
EC50 of luminescence (RLU), PD-1:PD-L1 Blockade Bioassay (PD-L1 aAPC/CHO-K1 cells with PD-1 Effector Jurkat NFAT-luciferase cells) [2]: 0.25 µg/mL
Kd [3]: 18 nM
koff [3]: 0.0045 s⁻¹
kon [3]: 250000 M⁻¹ s⁻¹
EC50 (6xHis-tagged huPD-L1 [4]): 0.0399 µg/mL
EC50 (6xHis-tagged cyPD-L1 [5]): 0.0306 µg/mL
Kd [6]: 27 nM
koff [6]: 0.0097 s⁻¹
kon [6]: 360000 M⁻¹ s⁻¹
EC50 [7]: 0.0415 µg/mL
EC50 [8]: 5.76 µg/mL
EC50 [9]: 0.0457 µg/mL
B1: 1P4 (antibody, V domains shown)
VH: QVQLVESGGGVVQPGRSLRLSCAASGFTFSNYGMHWVRQAPGKGLEWVSLILYDGSNKYYADSVKGRFTISRDNSKNTLYLQMNSLRAEDTAVYYCARDRVWLDVWGKGTTVTVSS
VL: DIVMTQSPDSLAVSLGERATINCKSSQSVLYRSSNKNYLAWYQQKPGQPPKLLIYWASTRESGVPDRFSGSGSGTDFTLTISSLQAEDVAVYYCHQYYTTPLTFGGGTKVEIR
notes: Recombinant full-length human antibody expressed in CHO K1 GS KO cells, with wild-type human Fc; also called anti-PD-L1 antibody 1P4; Unconj; 1P4

EC50 (6xHis-tagged cyPD-L1 [10]): 0.0542 µg/mL
EC50 [11]: 0.0129 µg/mL
EC50 [13]: 0.0439 µg/mL
EC50 [14]: 0.046 µg/mL
EC50 [15]: 0.0151 µg/mL
Kd [16]: 0.26 nM
koff [16]: 5.4e-05 s⁻¹
kon [16]: 210000 M⁻¹ s⁻¹
EC50 (6xHis-tagged huPD-L1 [17]): 0.0636 µg/mL
Kd [18]: 0.97 nM
koff [18]: 0.00038 s⁻¹
kon [18]: 390000 M⁻¹ s⁻¹
EC50 of luminescence (RLU), PD-1:PD-L1 Blockade Bioassay (PD-L1 aAPC/CHO-K1 cells with PD-1 Effector Jurkat NFAT-luciferase cells) [19]: 0.161 µg/mL
EC50 [9]: 0.0156 µg/mL
fold potency against avelumab-IR700 [20]: ~23 fold
B2: 1P9-IR700 (antibody, V domains shown)
VH: EVQLVESGGGLVQPGGSLRLSCAASGFTFSTYWMSWVRQAPGKGLEWVANIKQDGGERYYVDSVKGRFTISRDNAKSSLYLQMNSLRAEDTALYYCARLRLYSDYEDYWGQGTLVTVSS
VL: DIQMTQSPSSVSASVGDRVTITCRASQGISSWLAWYQQKPGKAPKLLIYSVSSLQSGVPSRFSGSGSGTDFTLTISSLQPEDSATYYCQQANSLPPTFGGGTKVEIK
modifications: IRDye 700DX (IR700) attached via NHS ester; sites not stated; IRDye 700DX (IR700) attached via NHS ester; sites not stated; DAR 2.5 per antibody
notes: also called 1P9-IR700 conjugate; anti-PD-L1-IR700 conjugate
EC50 of photoimmunotherapy-induced killing of A431 cells (Cell Tox Green, 128 J/cm^2) [12]: 0.0124 µg/mL

— US20250145716A1 (RAKUTEN MEDICAL, published 2025)
